# Assay results from patent US20240254195A1 (35PHARMA, published 2024).
# T1: recombinant human activin A (human, UniProt P08476 311-426)
# T1 sequence (looked up): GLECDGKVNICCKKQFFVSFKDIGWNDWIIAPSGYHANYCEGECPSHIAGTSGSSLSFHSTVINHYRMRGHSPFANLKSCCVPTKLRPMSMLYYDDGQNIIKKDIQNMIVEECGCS
# T2: activin B (UniProt P09529 293-407)
# T2 sequence (looked up): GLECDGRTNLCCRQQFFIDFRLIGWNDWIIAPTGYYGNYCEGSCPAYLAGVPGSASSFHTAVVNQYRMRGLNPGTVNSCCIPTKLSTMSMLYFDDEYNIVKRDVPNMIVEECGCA
# T3: GDF-8 (UniProt O14793 267-375)
# T3 sequence (looked up): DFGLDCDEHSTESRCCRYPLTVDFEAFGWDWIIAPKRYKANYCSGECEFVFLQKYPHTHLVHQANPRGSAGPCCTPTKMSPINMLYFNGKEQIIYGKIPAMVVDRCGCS
# T4: GDF-11 (UniProt O95390 299-407)
# T4 sequence (looked up): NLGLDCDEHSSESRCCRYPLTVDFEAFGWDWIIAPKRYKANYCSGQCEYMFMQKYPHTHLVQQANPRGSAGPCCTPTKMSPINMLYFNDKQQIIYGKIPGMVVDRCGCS
# T5: BMP-9 (UniProt Q9UK05 320-429)
# T5 sequence (looked up): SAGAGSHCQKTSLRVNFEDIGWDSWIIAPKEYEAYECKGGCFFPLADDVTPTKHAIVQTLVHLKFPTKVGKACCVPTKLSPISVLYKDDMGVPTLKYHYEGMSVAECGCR
# T6: BMP-10 (UniProt O95393 317-424)
# T6 sequence (looked up): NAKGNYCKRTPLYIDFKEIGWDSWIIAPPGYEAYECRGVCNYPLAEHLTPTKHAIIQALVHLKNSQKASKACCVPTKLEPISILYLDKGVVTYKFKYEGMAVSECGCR
# B1: P1372 (Fc fusion)
# chain: ETRECIYYNANWELERTNQSGLERCEGEQDKRWHCYASWRNSSGTIELVKKGCWLDDFNCYDRQECVATEENPQVYFCCCEGNFCNERFTHLPEAGGPEVTYEPPPTGGGGSGGGGSGGGGTHTCPPCPAPELLGGPSVFLFPPKPKDTLYITREPEVTCVVVDVSHEDPEVKFNWYVDGVEVHNAKTKPREEQYNSTYRVVSVLTVLHQDWLNGKEYKCKVSNKALPAPIEKTISKAKGQPREPQVYTLPPSRDELTKNQVSLTCLVKGFYPSDIAVEWESNGQPENNYKTTPPVLDSDGSFFLYSKLTVDKSRWQQGNVFSCSVMHEALHNHYTQKSLSLSPG
# B2: P1375 (Fc fusion)
# chain: ETRECIYYNANWELERTNQSGLERCEGEQDKRWHCYASWRNSSGTIELVKKGCWLDDFNCYDRQECVATEENPQVYFCCCEGNFCNERFTHLPEAGGPEVTYEPPPTGGGGSGGGGSGGGGSGGGGTHTCPPCPAPELLGGPSVFLFPPKPKDTLYITREPEVTCVVVDVSHEDPEVKFNWYVDGVEVHNAKTKPREEQYNSTYRVVSVLTVLHQDWLNGKEYKCKVSNKALPAPIEKTISKAKGQPREPQVYTLPPSRDELTKNQVSLTCLVKGFYPSDIAVEWESNGQPENNYKTTPPVLDSDGSFFLYSKLTVDKSRWQQGNVFSCSVMHEALHNHYTQKSLSLSPG
# How the values were obtained:
# Assay in all cases: cell-based or functional assay
# [1] = biological target: T1, recombinant human activin A
# activin B = biological target: T2, activin B
# GDF-8 = biological target: T3, GDF-8
# GDF-11 = biological target: T4, GDF-11
# BMP-9 = biological target: T5, BMP-9
# BMP-10 = biological target: T6, BMP-10
Binder,Activin A IC50 [1],Activin B IC50 (activin B),GDF-8 IC50 (GDF-8),GDF-11 IC50 (GDF-11),BMP-9 IC50 (BMP-9),BMP-10 IC50 (BMP-10)
B1,0.56 nM,2 nM,0.18 nM,0.53 nM,> 1000 nM,> 100 nM
B2,0.53 nM,2 nM,0.33 nM,0.39 nM,> 1000 nM,> 100 nM
